Target: T1, recombinant human midkine (MK17) (Homo sapiens, UniProt P21741 23-143)
T1 construct: The signal is left out; It gives a molecular weight of 13.4 kDa; also called human MK; MK17 protein
T1 sequence: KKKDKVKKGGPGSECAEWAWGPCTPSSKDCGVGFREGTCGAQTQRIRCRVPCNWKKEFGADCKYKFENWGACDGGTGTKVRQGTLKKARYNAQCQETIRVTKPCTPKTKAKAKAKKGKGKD
Experiment: SPR (Biacore), antibody amine coupled to CM-4 chip, midkine 0-20 nM as analyte
Procedure: Antibody IP-13 (2.85 mg/ml) was diluted to 5.7 μg/ml in Biacore acetate pH 4.5 buffer and amine coupled to of flow cell (FC) #3 of a CM-4 chip. Approximately 750 units were aimed to be immobilized onto Flow cells (FC) #3 of the CM-4 chip; and FC#1 was blocked using EDC/NHS followed by ethanolamine and was used as reference during the study.
Recombinant human midkine was diluted to 15 μM (1 μl of 10 mg/ml in 50 μl of HBS-EP buffer, the calculation was based on molecular weight of 13.4 kDa). Various dilutions of human midkine using HBS-EP buffer were prepared (0, 1, 2, 3, 4, 5, 10 and 20 nM).

B1: monoclonal antibody IP-13 (antibody, V domains shown)
VH: EVQLQQSGPELVKPGASVKIPCKASGYTFTDYNMGWVKQSHGKSLEWIGDINPNNGGTIYNQKFKGKATLTVDKSSSTAYMELRSLTSEDTAVYYCARWSYSNPYFDYWGQGTTLTVSS
VL: SIVMTQTPNFLLVSAGDRVTITCKASQSVSNDVSWYQQKPGQSPKLLIYYASNLYTGVPDRFTGSGYGTDFTFTISTVQAEDLAVYFCQQDYSSPWTFGGGTKLEIK
notes: also called mAb IP-13
- Ka: 5e+08 M⁻¹
- Kd: 2.02 nM
- koff: 0.0028 s⁻¹
- kon: 1.4e+06 M⁻¹ s⁻¹

Source: patent publication US20140170144A1 (CELLMID, published 2014)
